As usually defined, the Kd is the concentration at which binding is half-saturated.

Kd data for 35 molecules are collected here from PMC10786891, “Massively parallel profiling of RNA-targeting CRISPR-Cas13d”.

The labels stand for the following.
B1: target 2 MT 5'PFS UAA 3'PFS UCC (mixed)
RNA 1: CACCCGUGCAAAAUUGCAGGGGUCUAAAACCUUCUCCAAAUUGUUUCAUCCU
RNA 2: GGGAAUGGAUCCACAUCUACGAAUUCUAAAGGAUGAAACAAUUUGGAGAAGUCCAGAUCGGAAGAGCACACGU
B2: target 2 MT 5'PFS GGG 3'PFS CCA (mixed)
RNA 1: B1 RNA 1
RNA 2: B1 RNA 2 with U27G, A28G, A29G, U52C, C54A
B3: target 2 MT 5'PFS UAG 3'PFS CUG (mixed)
RNA 1: B1 RNA 1
RNA 2: B1 RNA 2 with A29G, U52C, C53U, C54G
B4: target 2 MT 5'PFS UUG 3'PFS ACC (mixed)
RNA 1: B1 RNA 1
RNA 2: B1 RNA 2 with A28U, A29G, U52A
B5: target 2 MT 5'PFS GCA 3'PFS AUG (mixed)
RNA 1: B1 RNA 1
RNA 2: B1 RNA 2 with U27G, A28C, U52A, C53U, C54G
B6: target 2 MT 5'PFS UAA 3'PFS UCA (mixed)
RNA 1: B1 RNA 1
RNA 2: B1 RNA 2 with C54A
B7: target 2 MT 5'PFS GCA 3'PFS AUC (mixed)
RNA 1: B1 RNA 1
RNA 2: B1 RNA 2 with U27G, A28C, U52A, C53U
B8: target 2 MT 5'PFS ACG 3'PFS CUU (mixed)
RNA 1: B1 RNA 1
RNA 2: B1 RNA 2 with U27A, A28C, A29G, U52C, C53U, C54U
B9: target 2 MT 5'PFS AAC 3'PFS AGC (mixed)
RNA 1: B1 RNA 1
RNA 2: B1 RNA 2 with U27A, A29C, U52A, C53G
B10: target 2 MT 5'PFS GGA 3'PFS AAU (mixed)
RNA 1: B1 RNA 1
RNA 2: B1 RNA 2 with U27G, A28G, U52A, C53A, C54U
B11: target 2 MT 5'PFS GGG 3'PFS CCG (mixed)
RNA 1: B1 RNA 1
RNA 2: B1 RNA 2 with U27G, A28G, A29G, U52C, C54G
B12: target 2 MT 5'PFS UGU 3'PFS CGC (mixed)
RNA 1: B1 RNA 1
RNA 2: B1 RNA 2 with A28G, A29U, U52C, C53G
B13: target 2 MT 5'PFS GCA 3'PFS AUU (mixed)
RNA 1: B1 RNA 1
RNA 2: B1 RNA 2 with U27G, A28C, U52A, C53U, C54U
B14: target 2 MT 5'PFS UAA 3'PFS UCG (mixed)
RNA 1: B1 RNA 1
RNA 2: B1 RNA 2 with C54G
B15: target 2 MT 5'PFS UAG 3'PFS CUA (mixed)
RNA 1: B1 RNA 1
RNA 2: B1 RNA 2 with A29G, U52C, C53U, C54A
B16: target 2 MT 5'PFS GUA 3'PFS CCA (mixed)
RNA 1: B1 RNA 1
RNA 2: B1 RNA 2 with U27G, A28U, U52C, C54A
B17: target 2 MT 5'PFS GGA 3'PFS CGU (mixed)
RNA 1: B1 RNA 1
RNA 2: B1 RNA 2 with U27G, A28G, U52C, C53G, C54U
B18: target 2 MT 5'PFS UGU 3'PFS CGA (mixed)
RNA 1: B1 RNA 1
RNA 2: B1 RNA 2 with A28G, A29U, U52C, C53G, C54A
B19: target 2 MT 5'PFS AGG 3'PFS UCC (mixed)
RNA 1: B1 RNA 1
RNA 2: B1 RNA 2 with U27A, A28G, A29G
B20: target 2 MT 5'PFS UAG 3'PFS CUU (mixed)
RNA 1: B1 RNA 1
RNA 2: B1 RNA 2 with A29G, U52C, C53U, C54U
B21: target 2 MT 5'PFS UGC 3'PFS UGC (mixed)
RNA 1: B1 RNA 1
RNA 2: B1 RNA 2 with A28G, A29C, C53G
B22: target 2 MT 5'PFS UUG 3'PFS ACU (mixed)
RNA 1: B1 RNA 1
RNA 2: B1 RNA 2 with A28U, A29G, U52A, C54U
B23: target 2 MT 5'PFS GGA 3'PFS AAC (mixed)
RNA 1: B1 RNA 1
RNA 2: B1 RNA 2 with U27G, A28G, U52A, C53A
B24: target 2 MT 5'PFS UAG 3'PFS CUC (mixed)
RNA 1: B1 RNA 1
RNA 2: B1 RNA 2 with A29G, U52C, C53U
B25: target 2 MT 5'PFS GCA 3'PFS AUA (mixed)
RNA 1: B1 RNA 1
RNA 2: B1 RNA 2 with U27G, A28C, U52A, C53U, C54A
B26: target 2 MT 5'PFS UUG 3'PFS ACA (mixed)
RNA 1: B1 RNA 1
RNA 2: B1 RNA 2 with A28U, A29G, U52A, C54A
B27: target 2 MT 5'PFS UUG 3'PFS UCC (mixed)
RNA 1: B1 RNA 1
RNA 2: B1 RNA 2 with A28U, A29G
B28: target 2 MT 5'PFS ACA 3'PFS CCG (mixed)
RNA 1: B1 RNA 1
RNA 2: B1 RNA 2 with U27A, A28C, U52C, C54G
B29: target 2 MT 5'PFS CAG 3'PFS AAA (mixed)
RNA 1: B1 RNA 1
RNA 2: B1 RNA 2 with U27C, A29G, U52A, C53A, C54A
B30: target 2 MT 5'PFS UUG 3'PFS ACG (mixed)
RNA 1: B1 RNA 1
RNA 2: B1 RNA 2 with A28U, A29G, U52A, C54G
B31: target 2 MT 5'PFS GGA 3'PFS AAA (mixed)
RNA 1: B1 RNA 1
RNA 2: B1 RNA 2 with U27G, A28G, U52A, C53A, C54A
B32: target 1 insU 3' of 2,insU 3' of 1 (mixed)
RNA 1: CACCCGUGCAAAAAUGCAGGGGUCUAAAACUGAGCGGAUAACCUCUCUAUGG
RNA 2: GGGAAUGGAUCCACAUCUACGAAUUCGUACCAUAGAGAGGUUAUCCGCUCUAUCCGAGAUCGGAAGAGCACACGU
B33: target 1 insU 3' of 20,insC 3' of 9 (mixed)
RNA 1: B32 RNA 1
RNA 2: GGGAAUGGAUCCACAUCUACGAAUUCGUACCAUUAGAGAGGUUACUCCGCUCACCGAGAUCGGAAGAGCACACGU
B34: target 1 insG 3' of 22,insA 3' of 7 (mixed)
RNA 1: B32 RNA 1
RNA 2: B33 RNA 2 with C31G, A32C, U33A, C45U, U46C, C47A
B35: target 1 C4A,C6A (mixed)
RNA 1: B32 RNA 1
RNA 2: GGGAAUGGAUCCACAUCUACGAAUUCGUACCAUAGAGAGGUUAUCAGAUCACCGAGAUCGGAAGAGCACACGU

Positions count from the first letter of the chain named. In names and notes the source's numbering stands.

The data set deals with T1, EsCas13d, nuclease-dead (Eubacterium siraeum, UniProt B0MS50, R295A;H300A;R849A;H854A).
T1 sequence: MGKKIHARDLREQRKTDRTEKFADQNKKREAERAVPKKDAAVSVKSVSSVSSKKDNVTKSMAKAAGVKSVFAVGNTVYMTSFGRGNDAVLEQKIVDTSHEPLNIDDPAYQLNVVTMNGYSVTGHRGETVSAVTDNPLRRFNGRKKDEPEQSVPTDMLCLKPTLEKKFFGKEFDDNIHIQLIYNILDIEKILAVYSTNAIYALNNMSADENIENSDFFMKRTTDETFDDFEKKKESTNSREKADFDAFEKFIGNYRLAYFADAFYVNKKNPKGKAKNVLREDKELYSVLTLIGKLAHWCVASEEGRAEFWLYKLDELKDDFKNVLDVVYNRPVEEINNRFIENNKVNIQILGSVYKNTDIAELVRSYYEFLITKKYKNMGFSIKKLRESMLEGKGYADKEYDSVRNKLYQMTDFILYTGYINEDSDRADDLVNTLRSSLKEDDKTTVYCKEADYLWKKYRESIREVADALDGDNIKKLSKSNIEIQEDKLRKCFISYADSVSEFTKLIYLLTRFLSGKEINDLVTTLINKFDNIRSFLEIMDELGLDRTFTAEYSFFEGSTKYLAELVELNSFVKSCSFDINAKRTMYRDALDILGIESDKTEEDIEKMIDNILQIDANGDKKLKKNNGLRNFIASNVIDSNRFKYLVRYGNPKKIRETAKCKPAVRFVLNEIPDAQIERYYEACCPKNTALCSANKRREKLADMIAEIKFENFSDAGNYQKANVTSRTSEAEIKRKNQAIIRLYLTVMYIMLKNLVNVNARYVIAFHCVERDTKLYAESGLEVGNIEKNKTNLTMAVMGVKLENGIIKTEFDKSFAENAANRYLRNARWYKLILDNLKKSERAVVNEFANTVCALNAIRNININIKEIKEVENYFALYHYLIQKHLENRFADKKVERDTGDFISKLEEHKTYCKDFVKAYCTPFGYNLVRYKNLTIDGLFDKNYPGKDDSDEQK
As to the kind of experiment: crRNA (strand 1, pre-loaded); Mg2+; 40 mM Tris-HCl pH 7.5, 150 mM NaCl, 6 mM MgCl2, 1 mM DTT, 0.1% Tween-20, 0.2 mg/ml BSA; 25 C; 10 min per concentration, then washed. The settings on record: tags: His6-TwinStrep-SUMO cleaved; N-terminal SNAP kept (SNAP-Surface 488); label: 3' end held by stalled T7 RNA polymerase.
For B1, the dissociation constant (Kd) turned out to be 11.8 ± 1.4 nM.
As for B2, the figure is 25 ± 5 nM; as for B3, 3.8 ± 0.5 nM; as for B4, 47 ± 10 nM.
B5 had a Kd of 8.8 ± 0.9 nM.
Molecule B6 had a dissociation constant (Kd) of 6.8 ± 1.7 nM.
As for B7, the figure is 14 ± 4 nM; as for B8, 11.1 ± 2.1 nM; as for B9, 4.4 ± 1.5 nM.
Then B10, with 6.7 ± 0.6 nM; and B11, with 11.6 ± 0.9 nM.
Then B12, with 18.5 ± 2.9 nM; and B13, with 10.3 ± 1 nM; and B14, with 6.2 ± 1 nM.
B15: the Kd was 3.6 ± 0.5 nM.
As for B16, the figure is 17.3 ± 2.4 nM.
Then B17, with 19.9 ± 3.1 nM; and B18, with 10.3 ± 1.7 nM; and B19, with 26 ± 4 nM.
The molecule B20 returned a Kd of 4.4 ± 0.5 nM.
Then B21, with 64 ± 18 nM; and B22, with 16.2 ± 1.8 nM; and B23, with 7.4 ± 0.7 nM.
As for B24, the figure is 4.4 ± 0.4 nM.
Then B25, with 7.2 ± 1 nM; and B26, with 15 ± 1.4 nM.
The molecule B27 came in with a Kd of 42 ± 7 nM.
Then B28, with 6.3 ± 1 nM.
Then B29, with 7.5 ± 2 nM; and B30, with 18.5 ± 1.6 nM.
As for B31, the figure is 8.6 ± 1.9 nM; as for B32, 10.7 ± 0.6 nM; as for B33, 22.6 ± 1.1 nM.
For B34, the Kd is 15.2 ± 1 nM. This Kd and that of the molecule before are within 1.5-fold of each other.
As for B35, the figure is 6.17 ± 0.31 nM.
